Experimental data as given in US20140072613A1 (published 2014).

T1: Fms(h) (human, UniProt P07333 538-972, limits assumed)
T1 sequence (looked up): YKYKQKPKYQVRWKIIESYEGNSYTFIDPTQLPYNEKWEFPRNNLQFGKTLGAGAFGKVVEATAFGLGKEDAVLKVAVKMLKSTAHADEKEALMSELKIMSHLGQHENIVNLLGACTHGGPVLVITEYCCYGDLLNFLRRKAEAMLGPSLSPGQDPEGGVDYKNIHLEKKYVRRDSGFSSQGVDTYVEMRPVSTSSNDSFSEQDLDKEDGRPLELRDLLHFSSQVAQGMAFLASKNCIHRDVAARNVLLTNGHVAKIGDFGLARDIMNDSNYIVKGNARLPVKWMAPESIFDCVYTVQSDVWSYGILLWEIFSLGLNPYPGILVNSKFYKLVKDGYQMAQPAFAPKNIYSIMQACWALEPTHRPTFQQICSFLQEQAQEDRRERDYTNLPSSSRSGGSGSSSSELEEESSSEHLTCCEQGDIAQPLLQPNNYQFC

T2: TAO3(h) (human, UniProt Q9H2K8 1-314, limits assumed)
T2 sequence (looked up): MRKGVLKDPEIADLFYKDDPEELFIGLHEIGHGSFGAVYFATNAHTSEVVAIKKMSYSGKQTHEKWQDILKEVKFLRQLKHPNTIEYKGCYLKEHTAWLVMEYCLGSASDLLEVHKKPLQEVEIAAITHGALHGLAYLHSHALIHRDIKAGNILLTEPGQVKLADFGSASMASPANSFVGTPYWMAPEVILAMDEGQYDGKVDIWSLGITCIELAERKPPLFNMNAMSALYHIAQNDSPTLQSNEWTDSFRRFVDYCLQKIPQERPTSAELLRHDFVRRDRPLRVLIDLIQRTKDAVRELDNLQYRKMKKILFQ

T3: EphA5(h) (human, UniProt P54756 595-1037, limits assumed)
T3 sequence (looked up): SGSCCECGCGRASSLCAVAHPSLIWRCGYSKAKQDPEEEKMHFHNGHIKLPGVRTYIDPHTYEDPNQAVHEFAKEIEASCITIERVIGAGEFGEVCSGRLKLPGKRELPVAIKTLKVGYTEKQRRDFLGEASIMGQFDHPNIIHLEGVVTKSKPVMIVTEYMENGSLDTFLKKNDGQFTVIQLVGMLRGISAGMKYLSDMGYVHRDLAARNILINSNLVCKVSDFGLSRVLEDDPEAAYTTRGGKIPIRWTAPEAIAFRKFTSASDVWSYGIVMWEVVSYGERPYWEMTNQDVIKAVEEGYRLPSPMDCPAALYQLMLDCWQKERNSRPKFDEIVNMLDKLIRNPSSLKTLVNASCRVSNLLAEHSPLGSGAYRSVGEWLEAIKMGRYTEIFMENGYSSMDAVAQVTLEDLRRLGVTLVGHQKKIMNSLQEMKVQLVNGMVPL

T4: EphA8(h) (human, UniProt P29322 564-1005, limits assumed)
T4 sequence (looked up): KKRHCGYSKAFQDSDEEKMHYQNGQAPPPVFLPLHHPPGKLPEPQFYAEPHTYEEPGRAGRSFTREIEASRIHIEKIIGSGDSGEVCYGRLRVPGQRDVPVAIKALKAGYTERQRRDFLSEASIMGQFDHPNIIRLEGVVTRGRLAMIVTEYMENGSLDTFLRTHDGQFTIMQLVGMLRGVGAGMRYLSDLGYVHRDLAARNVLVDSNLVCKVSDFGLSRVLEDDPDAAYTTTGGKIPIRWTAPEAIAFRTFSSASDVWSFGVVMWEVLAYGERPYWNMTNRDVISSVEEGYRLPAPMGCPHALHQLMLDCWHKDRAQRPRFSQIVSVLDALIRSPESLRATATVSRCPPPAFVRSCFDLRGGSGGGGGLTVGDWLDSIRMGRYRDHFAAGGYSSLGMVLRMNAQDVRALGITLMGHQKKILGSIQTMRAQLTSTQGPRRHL

T5: EphB3(h) (human, UniProt P54753 581-998, limits assumed)
T5 sequence (looked up): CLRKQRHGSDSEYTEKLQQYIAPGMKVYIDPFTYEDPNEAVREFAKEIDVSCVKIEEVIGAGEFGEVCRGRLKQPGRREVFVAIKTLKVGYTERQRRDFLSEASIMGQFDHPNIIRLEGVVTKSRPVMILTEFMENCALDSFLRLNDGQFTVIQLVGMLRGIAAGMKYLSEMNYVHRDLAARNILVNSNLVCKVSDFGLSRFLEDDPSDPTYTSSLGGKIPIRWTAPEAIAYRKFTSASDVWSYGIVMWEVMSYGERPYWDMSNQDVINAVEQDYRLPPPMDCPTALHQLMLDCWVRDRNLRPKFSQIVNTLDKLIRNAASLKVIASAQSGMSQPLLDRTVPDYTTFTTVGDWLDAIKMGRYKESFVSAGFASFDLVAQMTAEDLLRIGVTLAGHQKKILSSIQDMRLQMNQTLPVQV


Key:
Assay in all cases: cell-based or functional assay
Fms(h) = target: T1, Fms(h)
Hck(h) activated = Hck(h) activated (human, UniProt P08631 251-518, limits assumed)
AMPKα2(h) = AMPKα2(h) (human, UniProt P54646 1-552)
mTOR/FKBP12(h) = mTOR/FKBP12(h) (human, UniProt P42345 1362-2549; P62942 1-108)
PAK3(h) = PAK3(h) (human, UniProt O75914 1-559, limits assumed)
PDGFRα(D842V)(h) = PDGFRα(D842V)(h) (human, UniProt P16234 550-1089, limits assumed)
BRK(h) = BRK(h) (human, UniProt Q13882 1-451, limits assumed)
SIK(h) = SIK(h) (human, UniProt P57059 1-783, limits assumed)
TAO3(h) = target: T2, TAO3(h)
CDK5/p25(h) = CDK5/p25(h) (human, UniProt Q00535 1-292; Q15078 99-307)
CDK5/p35(h) = CDK5/p35(h) (human, UniProt Q00535 1-292; Q15078 1-307)
EGFR(T790M,L858R)(h) = EGFR(T790M,L858R)(h) (human, UniProt P00533 696-1210, limits assumed)
EphA5(h) = target: T3, EphA5(h)
EphA8(h) = target: T4, EphA8(h)
EphB3(h) = target: T5, EphB3(h)

Binder	% activity, 100 µM (Fms(h)) [%]	% activity, 100 µM (Hck(h) activated) [%]	% activity, 100 µM (AMPKα2(h)) [%]	% activity, 100 µM (mTOR/FKBP12(h)) [%]	% activity, 100 µM (PAK3(h)) [%]	% activity, 100 µM (PDGFRα(D842V)(h)) [%]	% activity, 100 µM (BRK(h)) [%]	% activity, 100 µM (SIK(h)) [%]	% activity, 100 µM (TAO3(h)) [%]	% activity, 100 µM (CDK5/p25(h)) [%]	% activity, 100 µM (CDK5/p35(h)) [%]	% activity, 100 µM (EGFR(T790M,L858R)(h)) [%]	% activity, 100 µM (EphA5(h)) [%]	% activity, 100 µM (EphA8(h)) [%]	% activity, 100 µM (EphB3(h)) [%]
KAFAKLAARLYRKALARQLGVAA [MMI-0400]	37	81	58	125	121	118	18	68	67	192	76	78	24	146	47
FAKLAARLYRKALARQLGVAA [MMI-0300]	45	82	54	145	140	114	35	66	77	89	79	85	18	93	62
